From article PMC10786891, “Massively parallel profiling of RNA-targeting CRISPR-Cas13d”
Residue numbers refer to the chain shown, from its start. Names may count otherwise.

T1: EsCas13d, nuclease-dead (Eubacterium siraeum, UniProt B0MS50, R295A;H300A;R849A;H854A)
T1 sequence: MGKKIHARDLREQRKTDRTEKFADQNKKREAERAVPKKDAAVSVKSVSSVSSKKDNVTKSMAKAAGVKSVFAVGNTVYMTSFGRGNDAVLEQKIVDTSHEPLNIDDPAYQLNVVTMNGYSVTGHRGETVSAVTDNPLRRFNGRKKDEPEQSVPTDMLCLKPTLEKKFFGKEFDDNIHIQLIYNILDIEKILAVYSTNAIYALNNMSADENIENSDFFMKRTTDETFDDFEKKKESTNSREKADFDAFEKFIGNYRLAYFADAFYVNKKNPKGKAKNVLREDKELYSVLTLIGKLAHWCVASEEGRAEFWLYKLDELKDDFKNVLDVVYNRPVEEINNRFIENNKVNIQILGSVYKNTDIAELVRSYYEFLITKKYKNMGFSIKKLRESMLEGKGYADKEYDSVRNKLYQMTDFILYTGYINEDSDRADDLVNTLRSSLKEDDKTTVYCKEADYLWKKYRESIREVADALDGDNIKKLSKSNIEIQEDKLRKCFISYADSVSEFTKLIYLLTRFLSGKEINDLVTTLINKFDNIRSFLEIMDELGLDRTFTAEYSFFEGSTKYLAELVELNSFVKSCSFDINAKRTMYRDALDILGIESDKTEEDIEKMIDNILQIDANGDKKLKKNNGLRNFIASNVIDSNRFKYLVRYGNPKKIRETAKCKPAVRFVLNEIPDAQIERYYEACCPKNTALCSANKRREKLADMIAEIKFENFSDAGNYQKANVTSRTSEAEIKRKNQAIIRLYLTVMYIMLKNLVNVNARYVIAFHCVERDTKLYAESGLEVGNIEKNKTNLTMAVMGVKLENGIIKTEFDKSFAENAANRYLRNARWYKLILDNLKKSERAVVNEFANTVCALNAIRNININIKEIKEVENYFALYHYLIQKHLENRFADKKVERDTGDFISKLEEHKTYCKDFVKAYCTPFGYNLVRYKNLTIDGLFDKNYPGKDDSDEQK

B1: target 1 insA 3' of 7,insA 3' of 6 (mixed)
RNA 1: CACCCGUGCAAAAAUGCAGGGGUCUAAAACUGAGCGGAUAACCUCUCUAUGG
RNA 2: GGGAAUGGAUCCACAUCUACGAAUUCGUACCAUAGAGAGGUUAUCACAGCUCACCGAGAUCGGAAGAGCACACGU
B2: target 1 insG 3' of 18,insU 3' of 2 (mixed)
RNA 1: B1 RNA 1
RNA 2: GGGAAUGGAUCCACAUCUACGAAUUCGUACCAUAGGAGAGGUUAUCCGCUCUACCGAGAUCGGAAGAGCACACGU
B3: target 1 insC 3' of 12,insA 3' of 7 (mixed)
RNA 1: B1 RNA 1
RNA 2: B1 RNA 2 with U41C, A43U, U44A, C45U, A46C, C47A, A48C
B4: target 1 insA 3' of 10,insG 3' of 8 (mixed)
RNA 1: B1 RNA 1
RNA 2: B1 RNA 2 with U44A, C45U, A46G, A48C
B5: target 1 insA 3' of 17,insC 3' of 5 (mixed)
RNA 1: B1 RNA 1
RNA 2: B2 RNA 2 with G36A, U50C, C51U, U52C
B6: target 1 insA 3' of 13,insA 3' of 7 (mixed)
RNA 1: B1 RNA 1
RNA 2: B1 RNA 2 with G40A, U41G, A43U, U44A, C45U, A46C, C47A, A48C
B7: target 1 insU 3' of 9,insA 3' of 3 (mixed)
RNA 1: B1 RNA 1
RNA 2: B1 RNA 2 with C45U, A46C, A48G, G49C, C50U, U51A
B8: target 1 insG 3' of 16,insA 3' of 11 (mixed)
RNA 1: B1 RNA 1
RNA 2: B1 RNA 2 with A38G, G39A, U41G, C45A, A46U, A48C
B9: target 1 C7U,G12A (mixed)
RNA 1: B1 RNA 1
RNA 2: GGGAAUGGAUCCACAUCUACGAAUUCGUACCAUAGAGAGAUUAUUCGCUCACCGAGAUCGGAAGAGCACACGU
B10: target 1 U10C,U11G (mixed)
RNA 1: B1 RNA 1
RNA 2: B9 RNA 2 with A40G, U41G, U42C, U45C
B11: target 1 del1,del13 (mixed)
RNA 1: B1 RNA 1
RNA 2: GGGAAUGGAUCCACAUCUACGAAUUCGUACCAUAGAGAGUUAUCCGCUCCCGAGAUCGGAAGAGCACACGU
B12: target 1 A18U,U19C (mixed)
RNA 1: B1 RNA 1
RNA 2: B9 RNA 2 with U33C, A34U, A40G, U45C
B13: target 1 del2,del13 (mixed)
RNA 1: B1 RNA 1
RNA 2: B11 RNA 2 with C49A
B14: target 1 C6G,A14C (mixed)
RNA 1: B1 RNA 1
RNA 2: B9 RNA 2 with A38C, A40G, U45C, C46G
B15: target 1 insG 3' of 6,insG 3' of 1 (mixed)
RNA 1: B1 RNA 1
RNA 2: B1 RNA 2 with A46C, C47G, A48G, G49C, C50U, U51C, C52A, A53G
B16: target 1 complement block 7-11 (mixed)
RNA 1: B1 RNA 1
RNA 2: B9 RNA 2 with A40G, U41A, U42A, A43U, U44A, U45G
B17: target 1 A1G,U10A (mixed)
RNA 1: B1 RNA 1
RNA 2: B9 RNA 2 with A40G, U42A, U45C, A51G
B18: target 1 C2G,A20U (mixed)
RNA 1: B1 RNA 1
RNA 2: B9 RNA 2 with A32U, A40G, U45C, C50G
B19: target 1 insA 3' of 21,insG 3' of 1 (mixed)
RNA 1: B1 RNA 1
RNA 2: B2 RNA 2 with U33A, A34U, G35A, U52A, A53G
B20: target 1 C7A,A9C (mixed)
RNA 1: B1 RNA 1
RNA 2: B9 RNA 2 with A40G, A43C, U45A
B21: target 1 insC 3' of 5,insC 3' of 3 (mixed)
RNA 1: B1 RNA 1
RNA 2: B1 RNA 2 with A46C, C47G, A48C, G49C, C50U, U51C
B22: target 1 insU 3' of 17,insA 3' of 11 (mixed)
RNA 1: B1 RNA 1
RNA 2: B1 RNA 2 with A36U, G37A, A38G, G39A, U41G, C45A, A46U, A48C
B23: target 1 U10A (mixed)
RNA 1: B1 RNA 1
RNA 2: B9 RNA 2 with A40G, U42A, U45C
B24: target 1 insA 3' of 13,insG 3' of 10 (mixed)
RNA 1: B1 RNA 1
RNA 2: B1 RNA 2 with G40A, U41G, A43U, U44G, C45A, A46U, A48C
B25: target 1 A16G,C21A (mixed)
RNA 1: B1 RNA 1
RNA 2: B9 RNA 2 with C31A, A36G, A40G, U45C
B26: target 1 insG 3' of 7,insU 3' of 6 (mixed)
RNA 1: B1 RNA 1
RNA 2: B1 RNA 2 with A46G, A48U
B27: target 1 A1U,U10A (mixed)
RNA 1: B1 RNA 1
RNA 2: B9 RNA 2 with A40G, U42A, U45C, A51U
B28: target 1 insC 3' of 14,insG 3' of 8 (mixed)
RNA 1: B1 RNA 1
RNA 2: B1 RNA 2 with G39C, U41G, A43U, U44A, C45U, A46G, A48C
B29: target 1 A1C,U10A (mixed)
RNA 1: B1 RNA 1
RNA 2: B9 RNA 2 with A40G, U42A, U45C, A51C
B30: target 1 insG 3' of 16,insG 3' of 8 (mixed)
RNA 1: B1 RNA 1
RNA 2: B1 RNA 2 with A38G, G39A, U41G, A43U, U44A, C45U, A46G, A48C
B31: target 1 U8G,A9C (mixed)
RNA 1: B1 RNA 1
RNA 2: B9 RNA 2 with A40G, A43C, U44G, U45C
B32: target 1 C7G,G15U (mixed)
RNA 1: B1 RNA 1
RNA 2: B9 RNA 2 with G37U, A40G, U45G
B33: target 1 insA 3' of 3 (mixed)
RNA 1: B1 RNA 1
RNA 2: GGGAAUGGAUCCACAUCUACGAAUUCGUACCAUAGAGAGGUUAUCCGCUACACCGAGAUCGGAAGAGCACACGU

Target: T1, EsCas13d, nuclease-dead
Assay: crRNA (strand 1, pre-loaded); Mg2+; 40 mM Tris-HCl pH 7.5, 150 mM NaCl, 6 mM MgCl2, 1 mM DTT, 0.1% Tween-20, 0.2 mg/ml BSA; 25 C; 10 min per concentration, then washed
Settings: tags: His6-TwinStrep-SUMO cleaved; N-terminal SNAP kept (SNAP-Surface 488); label: 3' end held by stalled T7 RNA polymerase

Binder | Kd [nM]
B1 | 7.46 ± 0.33
B2 | 84 ± 26
B3 | 12.7 ± 0.5
B4 | 10.1 ± 0.5
B5 | 32.2 ± 2.7
B6 | 4.06 ± 0.21
B7 | 13.1 ± 0.7
B8 | 19.7 ± 1
B9 | 6.9 ± 0.4
B10 | 29.2 ± 2.6
B11 | 25 ± 4
B12 | 64 ± 16
B13 | 11.7 ± 0.4
B14 | 13.4 ± 0.4
B15 | 5.7 ± 0.4
B16 | 13.3 ± 0.6
B17 | 8.5 ± 0.6

Binder | Kd [nM]
B18 | 39 ± 7
B19 | 15.5 ± 0.8
B20 | 13.6 ± 0.9
B21 | 22.3 ± 1.8
B22 | 28 ± 7
B23 | 9.3 ± 0.6
B24 | 7.2 ± 0.5
B25 | 48 ± 11
B26 | 8.24 ± 0.34
B27 | 8.8 ± 0.4
B28 | 65 ± 11
B29 | 26.2 ± 2.2
B30 | 23.1 ± 1.9
B31 | 11 ± 0.6
B32 | 30 ± 4
B33 | 8.8 ± 0.4
